These results are taken from patent US20160040149A1, “Compositions Having Dicamba Decarboxylase Activity and Methods of Use” (priority 2013, published 2016).

First the molecules themselves.
B1: 4 (protein, listed as Lactobacillus buchneri)
chain: MAKVITLEEHFSSQKLGQKMAEVLPKRPIGNVSPKMQDYMQRSLPPEAELEDVTGSRIQWMDQHQISMQILSYGNQNPQNSDPKFAVELTKLANDELAKAVAKAPDRFRAFASLPVSHPTDAAAELKRGVEELGFKGAMLVRPTSQAHPFFDDPFYLPIFEAAANLNVPVYLHPSFPDSQIIDYYYSNGPWDDKVSGILGTAGYGWHTDVGIQTVRLLLSGVFEKYPNLKLISGHWGEFASFALERMDQVMYPETNLSEPISKIYRDHVYVTPSGILTEPQLKFVKDEVGIEHLLYSIDYPYIKPENSGSFIESSPLTDEEKELFAHGNAEKLLQL
B2: 79 (protein)
chain: MATTTTPSTLIATLESHLTPTLAFTSPTTSPTQPALHLIPPTTLTKLRNLGPGRVKDMHMLGHSRQIISHIPVAAPPQICSRFNDAIHAATMTNTAKFSVLAVLPTDGMEAAKELARCVSKYRFVGGVIGLNRGLRINGEGWEELWGLAERLRIPIMFREMWPLAFEIVDYQHHLPYSALGPILTQLHTSHTSSPLPLVRLYLSSVFDHYPSLRLVLAHPGSLPSLVPRIESLINSIPATDKPKRSFLDVWQHNIYLTTADAQDMSSLRALLEQIPVDRVLYASNYPFEERGNELMNELRESEFLTNIEWERVAWVNAETLFNLKEAGTKEARQLTTIPSSRS
modifications: Pyrenophora teres
B3: 84 (protein, listed as Mycobacterium rhodesiae)
chain: MASLIALEEHYAWDPASEGNVVATWLRANNGVAYDRLYDRGPLRIEQMDAAGIDFQILSLFDPGVQDEVDAVRAVDLARRANDDLAESVRANPSRFGGFATLATQQPDAAVAEFDRAVTELGLVGGLINGHCQGRYLDDPAYEALFSRAEALGAPIYLHPTTPHPAVMDAWFAPYVGDGLHLASWGFAAETGTHVLRLIYSGLFDKFPRLQMIIGHLGEMLPFAAYRIDRYYGLGGGGTGHTLQHLPSDYLRNNFHVTTSGNFCSPALDCTLDVMGADRVMFSVDYPMDDNQTGADFLASYPMDDTNRRKVASENALRLFGDRIPAALRN
B4: 85 (protein, listed as Maritimibacter alkaliphilus)
chain: MAADRKPGLVSVEEGFMIPEVVAELSRIAGGVPSMKSGPIAGPFMDDLLDIGKGRVARMDADGVAVQILALAAPGVQKFDPDTALALSRLTNDRLAEAIAAHPARFGGLAAAPPQAAREGAKELDRAITTLGLNGLIVNSHTNDLYLDDPSFWPLLEAAEALDVPVYLHPREPAAGIEGGLMAMTGFTVGWAYAVETGTHLLRMIAAGVFDRFPRLRIVLGHLGEMIPFMLDRIDNRYPFEMGVTGAKPLPRKPSDYFRDHVTVATSGMNFNAPMRAAIEVLGADKVMFAADYPMERQDEEVAKFAALDLTPDERKRIGEDNARRVFGL
B5: 81 (protein, listed as Verticillium dahliae)
chain: MAASTKPKVVDIHTHMYPPSYIDILTSRTAIPVVRTFPQAADPRLILLDAEQQALDAALQDPTAKPPGRPLTSHYASLDQKIHFMDTHSIDISVVSLANPWLDFIEPKEAAATARSVNDEFEAMCASQPGRLFFFAALPLTAPLPALLEAVRHVAELEHCRGVILGTSGLGSGLDDPELVPVLEAVAAAALTVFLHPHYGLPNDVWGPRASAEYGHVLPLALGFPMETTIAVARMYLAGVFDRVPALRMLLAHSGGTLPFLAGRIESCILHDGQLVAEGKVGAARRTIWDVLREQVYLDAVIYSEIGLKAAIAASGGADRLMFGTDHPFFPPLGTDEQAKKESRINAGGSRPMITGNAMINGHGGLCNHITQSDYQDVVL
B6: 86 (protein, listed as Sphingopyxis alaskensis)
chain: MALGASVASREASAQMAKAPMRKIATEEAFATPELAKAWLEIARSEPNSSLDIPTGILSIFDNPRPGSNQDRFRRQLLDVDAERIRDMDEAGVDMQLLSVTIPGVQIFEPARAGELAVTTNDHLAAAIARRPTRFAGLACFAPHDPVQATREMERAVNALGLKGFIVNSHTQDLYLDDPRFAPVLEAAQSLDCPIYLHPRAPSNGMAAPFRDYSMGGSIWGFGVEAGTHAVRMILSGVFDRYPRLRIVLGHMGEALPFWMWRLDHMAARRAKDGRMKPLSLAPSEYFKRNFAVTTSGFESPDVLDLVIKVAGIENIMWAIDYPYESSRDAVTFIEGADLTASQRASIFHRNAVRHFRLS
B7: 78 (protein, listed as Marinobacter adhaerens)
chain: MALIDLHAHAPHPDYYDQHPHWGPAFELQSDGDIKLRVGHWVLSLGAPERKQALREAHARGETLDVQEYMAKWRDPEHRLASMDAAGQNAQVLSVPSHCYMYWAEPEFGVPFAKKVNDSLAEYCSAAPDRLMFWAHAPLNVPKEAAKEIRRACTELGAKGLVAGGSNFGGLEFDSPEMDPVWEALCDLDLPMFVHGYNQSVTWGEEANTDRYETTAIVGMNYDESKCFWYMINGGVFDRFPNLKVYITHGGGFVPYQLGRMAQTNPNLDTYHNKKPFLEYLKNFYFDVELHEVPMRQAMVEVIGADRVLYGSNFGGSDAVRHDLTDDLKLSQEDLDKIRWKNACDLLHLDPNKLGKVRG
B8: 83 (protein, listed as Mycobacterium rhodesiae)
chain: MALIALEEHYAWSPVSAGNVVGSWLETHNVTAYQRLYDRGPLRLEQMDAAGIDFQILSLFDPGVQDDDDTARAVENARRANDDLAETVRAAPDRFGGFATLAPQDPDAAAAELERAVGELGLVGGLINGHTHGRYLDDPAYLGLFECAQRLGVPIYLHPTTPHPAVMDAWFAPYVKDGLHLASWGFAAETGTHALRLIYSGLFDTFPRLQMILGHLGEMLPYAAYRIDRYYGLGGGDDGGRLARLPSEYLRDNFHVTTSGNFNPVAFACALDVMGPDRLMFSVDYPMDDNVTGAEFLRNLEVDDDVRRKVAGENALQLFGDKIPRR
B9: 80 (protein, listed as Cordyceps militaris)
chain: MAAASTPVVVDIHTHMYPPSYIAMLEKRQTIPLVRTFPQADEPRLILLSSELAALDAALADPAAKLPGRPLSTHFASLAQKMHFMDTNGIRVSVISLANPWFDFLAPDEAPGIADAVNAEFSDMCAQHVGRLFFFAALPLSAPVDAVKASIERVKNLKYCRGIILGTSGLGKGLDDPHLLPVFEAVADAKLLVFLHPHYGLPNEVYGPRSEEYGHVLPLALGFPMETTIAVARMYMAGVFDHVRNLQMLLAHSGGTLPFLAGRIESCIVHDGHLVKTGKVPKDRRTIWTVLKEQIYLDAVIYSEVGLQAAIASSGADRLMFGTDHPFFPPIEEDVQGPWDSSRLNAQAVIKAVGEGSSDAAAVMGLNAVRVLSLKAE
B10: 82 (protein, listed as Rhodopseudomonas palustris)
chain: MAQNETPVIAIEEHYWDPEMVARFPAGENASPFSTLLTELGDVRLRAMDEAGIDVQVLSHGAPAAQKLPPDVAPELTRRVNDRLAEACARFPNRFAAFAALPTPAPEAAARELERCVRDLGFKGAMIHGLTNGLFIDDKRFWPIFEVAEKLDVPIYLHPSVPHADVTRYYYDDYAREFPTVIRPAWGFTVETATQAIRLILSRALESYPRLQIILGHLGETLPFLLWRINQALARPGQTPLDFRKQFCDHFHVTTSGFFSTPALICTMLELGIDRIMFAVDYPYVVNRDGTDWVQQLQISPDDKRKLVGGNARRLLKL
B11: 77 (protein)
chain: MALIDLHAHAPHPGYYNQHPHWGPFFERHEDGDVKLRVGDWILTLGSPERKALVRAGKGPTVEEYQARWADPKVRLAGMDAAGQNAQVVSVPSHCYMYWAEKEFSVPFATKVNDTFAEYCSAAPDRLMFWAHAALNAPEQAALELRRACTELGAKGLVAGGANFGGLEFDSPELDPVWKVLCDLDLPMFIHGYNQSVTWGKKANDDRYETTAIVGMQYDETRCFWNLVCGGVLDRFPGLKVYITHGGGYVPYQLGRLAQCNGNLDVAHNKKPVLEYLKNNFYFDVELHEVPMRQALIDIIGADRVLYGSNFGGSDAVRHDLTEGLRLSDDDLQKIRWKNACKLLHLDPAKIGEPAKKQAVSA
modifications: Burkholderia xenovorans

The assay is described as follows: Saturation mutagenesis of SEQ ID NO:109: dicamba decarboxylation activity of point mutants (CO2 released), fold of backbone (Tables 7, 8, Megatable 1). The conditions noted are these: decarboxylation activity (CO2 released) of point mutant vs unmutated backbone protein; backbone SEQ ID NO: 109.
As for B1, the “Fold Activity” value was 1 fold. Next, B2: 0.9 fold; B3: 1 fold; B4: 1.4 fold.

As to B5, the “Fold Activity” value came to 1.2 fold. Turning to B6, the “Fold Activity” value is 1.4 fold. Next, B7: 1.1 fold; B8: 1.9 fold; B9: 0.8 fold. Next, B10: 0.9 fold; B11: 1.3 fold.
